Measurements published in patent US20240352111A1 (Regeneron, published 2024).
Numbering of substitutions follows the chain as printed. Where two headings read alike, the source gives them in different places.

What was measured:
[1] = target: T1, hArtemin-MMH (human); test: cell-based or functional assay
T1 chain: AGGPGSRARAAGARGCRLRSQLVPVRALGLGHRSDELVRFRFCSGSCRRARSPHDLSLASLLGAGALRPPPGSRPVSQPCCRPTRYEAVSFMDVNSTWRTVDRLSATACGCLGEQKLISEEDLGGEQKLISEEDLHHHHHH

[2] = target: T2, mArtemin-MMH (mouse); test: cell-based or functional assay
T2 chain: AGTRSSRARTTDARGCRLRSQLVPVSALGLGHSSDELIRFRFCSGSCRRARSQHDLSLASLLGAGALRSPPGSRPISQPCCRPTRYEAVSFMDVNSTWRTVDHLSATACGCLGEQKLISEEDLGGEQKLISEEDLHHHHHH

[3] = target: MfArtemin-MMH (cynomolgous monkey (Macaca fascicularis)); test: cell-based or functional assay
[4] = target: T2, mArtemin-MMH; test: blocking ELISA, 150 pM msARTN.mmh binding to plate-coated hGFRa3.hFc
[5] = target: T1, hArtemin-MMH; test: SPR Biacore T200, hArtemin-MMH captured by anti-myc mAb, mAb injected, 25 C
Method: (§1) The equilibrium dissociation constant (KD) for Artemin binding to each of Artemin monoclonal antibodies (mAbs) H4H33331P, H4H33335P, H4H33336P, and H4H33349P was determined using a real-time surface plasmon resonance Biacore T200 biosensor. All binding studies were performed in 10 mM HEPES, 150 mM NaCl, 3 mM EDTA, and 0.05% v/v Surfactant Tween-20, pH 7.4 (HBS-ET) running buffer at 25° C. The Biacore CM4 sensor chip surface was first derivatized by amine coupling with anti-myc mAb to capture hArtemin-MMH, MfArtemin-MMH, or mArtemin-MMH. Different concentrations of Artemin mAbs (60-2.2 nM, 3-fold serial dilution) prepared in […] running buffer were injected over the Artemin-captured surfaces for 3 min at a flow rate of 50 μL/min and their dissociation in HBS-ET running buffer was monitored for 5 minutes. At the end of each cycle, the Artemin-captured surfaces were regenerated using a 6 sec injection of 20 mM phosphoric acid.
(§2) The association rate (kₐ) and dissociation rate (kd) were determined by fitting the real-time binding sensorgrams to a 1:1 binding model with mass transport limitation using Scrubber 2.0c curve-fitting software. Binding dissociation equilibrium constant (KD) and dissociative half-life (t½) were calculated from the kinetic rates as: KD (M)=kd/kₐ, and t_{1/2} (min)=[In2/(60*kd)].

[6] = target: T1, hArtemin-MMH; test: blocking ELISA, 75 pM hARTN.mmh binding to plate-coated hGFRa3.hFc
[7] = target: MfArtemin-MMH (cynomolgous monkey (Macaca fascicularis)); test: SPR Biacore T200, MfArtemin-MMH captured by anti-myc mAb, mAb injected, 25 C
[8] = target: MfArtemin-MMH (cynomolgous monkey (Macaca fascicularis)); test: blocking ELISA, 400 pM mfARTN.mmh binding to plate-coated hGFRa3.hFc
[9] = target: T2, mArtemin-MMH; test: SPR Biacore T200, mArtemin-MMH captured by anti-myc mAb, mAb injected, 25 C
Method: as §1, §2

[10] = target: T1, hArtemin-MMH; test: BLI (Octet HTX), mAb captured on AHC tips, artemin at 7.5 nM, 25 C
Method: (§3) The entire experiment was performed at 25° C. in 10 mM HEPES, 150 mM NaCl, 3 mM EDTA, 0.02% NaN3 and 0.05% v/v Surfactant Tween-20, 1 mg/mL BSA, pH7.4 (HBS-EBT) buffer with the plate shaking at a speed of 1000 rpm. Different Artemin mAbs were first captured onto anti-human antibody (AHC) coated Octet biosensor tips (Fortebio Inc, #18-5064) by submerging the biosensor tips for 40 seconds in wells containing 2 μg/mL of Artemin mAb. […] All the Artemin and Artemin mAb samples were prepared in HBS-EBT buffer. The real-time binding response was monitored during the entire course of the experiment and the binding response at the end of every step was recorded.

[11] = target: T2, mArtemin-MMH; test: as above
Method: as §3

[12] = target: T3, MfArtemin-MMH (cynomolgous monkey (Macaca fascicularis)); test: as above
T3 construct: also called mfARTN.mmh; mfARTN (A108-G22).mmh
T3 chain: T1 chain with A8P, V76I
Method: as §3

[13] = target: T3, MfArtemin-MMH; test: cell-based or functional assay
[14] = target: T2, mArtemin-MMH; test: blocking ELISA, antibody blocks 150 pM msARTN.mmh binding to plate-coated hGFRa3.hFc
Method: (§4) Experiments were carried out using the following procedures. Plates were coated with hGFRa3.hFc at 2 μg/ml in PBS on a 96-well microtiter plate at 4° C. overnight for all three assays. […] In other microtiter plates, a constant amount of either 75 pM hARTN.mmh, 400 pM mfARTN.mmh, or 150 pM msARTN.mmh were separately bound with anti-ARTN antibodies and an irrelevant IgG4 antibody control at a serial dilution series from 0.0017 nM to 100 nM in PBS+0.5% BSA. After a one-hour incubation, the mixture solutions were transferred to microtiter plates coated with hGFRa3.hFc. After one hour of incubation at RT, the wells were washed with PBST, and plate-bound ARTN was detected with an anti-penta-His antibody conjugated with horseradish peroxidase (HRP) (Qiagen). The plates were then developed using TMB substrate solution (BD Biosciences, #555214) according to manufacturer's recommendation and absorbance at 450 nm was measured on a Victor X5 plate reader.
(§5) Binding data were analyzed using a sigmoidal dose-response model within Prism™ software (GraphPad). […] If the calculated IC50 value was below the LLOA, less than LLOA was reported. Percent blocking at 100 nM antibody was calculated based on the background-corrected binding signal observed at the highest antibody concentration tested using the formula listed below and reported for all tested antibodies: […]

[15] = target: T3, MfArtemin-MMH; test: SPR Biacore T200, MfArtemin-MMH captured by anti-myc mAb, mAb injected, 25 C
Method: as §1, §2

[16] = target: T1, hArtemin-MMH; test: BLI (Octet HTX), mAb captured on AHC tips, artemin at 3.75 nM, 25 C
Method: as §3

[17] = target: T2, mArtemin-MMH; test: as above
Method: as §3

[18] = target: T3, MfArtemin-MMH; test: as above
Method: as §3

[19] = target: T1, hArtemin-MMH; test: blocking ELISA, antibody blocks 75 pM hARTN.mmh binding to plate-coated hGFRa3.hFc
Method: as §4, §5

[20] = target: T3, MfArtemin-MMH; test: blocking ELISA, antibody blocks 400 pM mfARTN.mmh binding to plate-coated hGFRa3.hFc
Method: as §4, §5

[21] = target: T1, hArtemin-MMH; test: BLI (Octet HTX), mAb captured on AHC tips, artemin at 30 nM, 25 C
Method: as §3

[22] = target: T2, mArtemin-MMH; test: as above
Method: as §3

[23] = target: T3, MfArtemin-MMH; test: as above
Method: as §3

[24] = target: T1, hArtemin-MMH; test: BLI (Octet HTX), mAb captured on AHC tips, artemin at 15 nM, 25 C
Method: as §3

[25] = target: T2, mArtemin-MMH; test: as above
Method: as §3

[26] = target: T3, MfArtemin-MMH; test: as above
Method: as §3

With Isotype Control mAb (antibody) the Max inhibition (%), SRE-luciferase reporter, 500 pM hArtemin [1] was 9%, the Max inhibition (%), SRE-luciferase reporter, 1 nM mArtemin [2] was 1% and the Max inhibition (%), SRE-luciferase reporter, 3 nM mfArtemin [3] was 10%. For the same molecule, the % Blocking with 100 nM Ab [4] was -31%, the 60 nM Artemin mAb Bound (RU) [5] was 0 RU and the % Blocking with 100 nM Ab [6] was -3%. It also gave a 60 nM Artemin mAb Bound (RU) [7] of 0 RU, a % Blocking with 100 nM Ab [8] of -28% and a 60 nM Artemin mAb Bound (RU) [9] of 0 RU.

B1: H4H33335P (antibody, human IgG4 S228P, kappa, V domains shown)
VH: EVQLVESGGGLVQPGGSLRLSCAASGFTFSSYDMHWVRQATGKGLEWVSTIDTAGDTYYPGSVKGRFTISRENAKNSLYLQMNSLRAGDTAVYYCARDGELELQGYFDLWGRGTLVTVSS
VL: DIQMTQSPSSLSASVGDRVTITCRASQIISIYLNWYQQKPGKAPKLLIYAASSLQSGVPSRFSGSGSGTDFTLTISSLQPEDFATYYCQQSYTTPLTFGGGTKVEIKR
notes: Fully human antibody; also called Artemin mAb; anti-ARTN antibody
B1 was tested, and the “Artemin Binding Response (nm)” value [10] was 0.07 nm, the “Artemin Binding Response (nm)” value [11] was 0.05 nm and the “Artemin Binding Response (nm)” value [12] was 0 nm. For the same molecule, the “Max inhibition (%), SRE-luciferase reporter, 500 pM hArtemin” value [1] was 100%, the “Max inhibition (%), SRE-luciferase reporter, 1 nM mArtemin” value [2] was 95% and the “Max inhibition (%), SRE-luciferase reporter, 3 nM mfArtemin” value [13] was 100%. The “% Blocking with 100 nM Ab” value [14] was 63%, the IC50 [14] was 0.0876 nM and the “60 nM Artemin mAb Bound (RU)” value [5] was 4 RU. For the same molecule, the Kd [5] was 2.22 nM, the koff [5] was 0.00019 s⁻¹ and the kon [5] was 85300 M⁻¹ s⁻¹. For the same molecule, the “t½” value [5] was 61 min, the “60 nM Artemin mAb Bound (RU)” value [15] was 3 RU and the “Artemin Binding Response (nm)” value [16] was 0.02 nm. The “Artemin Binding Response (nm)” value [17] was 0.02 nm, the “Artemin Binding Response (nm)” value [18] was 0 nm and the “% Blocking with 100 nM Ab” value [19] was 65%. The IC50 [19] was 0.505 nM, the “% Blocking with 100 nM Ab” value [20] was 71% and the IC50 [20] was 0.233 nM. The “Artemin Binding Response (nm)” value [21] was 0.11 nm, the “Artemin Binding Response (nm)” value [22] was 0.08 nm and the “Artemin Binding Response (nm)” value [23] was 0.09 nm. The “60 nM Artemin mAb Bound (RU)” value [9] was 3 RU, the “Artemin Binding Response (nm)” value [24] was 0.11 nm and the “Artemin Binding Response (nm)” value [25] was 0.07 nm. The “Artemin Binding Response (nm)” value [26] was 0.04 nm.
